Data: the supplement of paper PMC5998384

How the values were obtained:
[1] = system: HeLa Kyoto; assay: solubility in G1/S (NP-40 vs SDS abundance) (log2 ratio); higher = more soluble; conditions: cell cycle stage: G1/S
[2] = system: HeLa Kyoto; assay: melting temperature (median over replicates), in situ; higher = more thermally stable
[3] = system: HeLa Kyoto; assay: solubility change mitosis vs G1/S (difference of NP-40 vs SDS log2 ratios) (log2 ratio difference); higher = more soluble in mitosis
[4] = system: HeLa Kyoto; assay: thermal stability score vs G1/S (z-score of summed log2 fold changes over temperatures); higher = more thermally stable than in G1/S
[5] = cell cycle stage: early G1 (4.5 h after nocodazole release)
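Throughout, for melting temperature (median over replicates), in situ: HeLa Kyoto cells synchronized by double thymidine or nocodazole block, proteins quantified by TMT10plex mass spectrometry, three independent biological replicates.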
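Throughout, for solubility change mitosis vs G1/S (difference of NP-40 vs SDS log2 ratios): synchronized HeLa Kyoto cells (double thymidine block for G1/S, nocodazole release for mitosis), protein amounts in NP-40 versus SDS lysates quantified by mass spectrometry, three biological replicates.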
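Throughout, for solubility in G1/S (NP-40 vs SDS abundance): HeLa Kyoto cells arrested at G1/S by double thymidine block, proteins quantified by TMT10plex mass spectrometry in mild NP-40 versus SDS extracts, three biological replicates.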
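Throughout, for thermal stability score vs G1/S (z-score of summed log2 fold changes over temperatures): synchronized HeLa Kyoto cells, proteins quantified by TMT10plex mass spectrometry, three biological replicates, mitosis taken 0.5 h after nocodazole release, G1/S directly after double thymidine block.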

Sequence	solubility in G1/S (log2) [1]	melting temperature ([2]; cell cycle stage: G1/S) [°C]	melting temperature ([2]; cell cycle stage: mitosis) [°C]	solubility change mitosis (log2) [3]	thermal stability score [4, 5]	thermal stability score ([4]; cell cycle stage: mitosis)
MFLPHMNHLTLEQTFFSQVLPKTVKLFDDMMYELTSQARGLSSQNLEIQTTLRNILQTMVQLLGALTGCVQHICATQESIILENIQSLPSSVLHIIKSTFVHCKNSESVYSGCLHLVSDLLQALFKEAYSLQKQLMELLDMVCMDPLVDDNDDILNMVIVIHSLLDICSVISSMDHAFHANTWKFIIKQSLKHQSIIKSQLKHKDIITSLCEDILFSFHSCLQLAEQMTQSDAQDNADYRLFQKTLKLCRFFANSLLHYAKEFLPFLSDSCCTLHQLYLQIHSKFPPSLYATRISKAHQEEIAGAFLVTLDPLISQLLTFQPFMQVVLDSKLDLPCELQFPQCLLLVVVMDKLPSQPKEVQTLWCTDSQVSETTTRISLLKAVFYSFEQCSGELSLPVHLQGLKSKGKAEVAVTLYQHVCVHLCTFITSFHPSLFAELDAALLNAVLSANMITSLLAMDAWCFLARYGTAELCAHHVTIVAHLIKSCPGECYQLINLSILLKRLFFFMAPPHQLEFIQKFSPKEAENLPLWQHISFQALPPELREQTVHEVTTVGTAECRKWLSRSRTLGELESLNTVLSALLAVCNSAGEALDTGKQTAIIEVVSQLWAFLNIKQVADQPYVQQTFSLLLPLLGFFIQTLDPKLILQAVTLQTSLLKLELPDYVRLAMLDFVSSLGKLFIPEAIQDRILPNLSCMFALLLADRSWLLEQHTLEAFTQFAEGTNHEEIVPQCLSSEETKNKVVSFLEKTGFVDETEAAKVERVKQEKGIFWEPFANVTVEEAKRSSLQPYAKRARQEFPWEEEYRSALHTIAGALEATESLLQKGPAPAWLSMEMEALQERMDKLKRYIHTLG [C1ORF112]	-0.208	47.9	48.9	-0.0761	0.547	1.23
MFLTRSEYDRGVNTFSPEGRLFQVEYAIEAIKLGSTAIGIQTSEGVCLAVEKRITSPLMEPSSIEKIVEIDAHIGCAMSGLIADAKTLIDKARVETQNHWFTYNETMTVESVTQAVSNLALQFGEEDADPGAMSRPFGVALLFGGVDEKGPQLFHMDPSGTFVQCDARAIGSASEGAQSSLQEVYHKSMTLKEAIKSSLIILKQVMEEKLNATNIELATVQPGQNFHMFTKEELEEVIKDI [PSMA5]	0.313	55.4	53.9	-0.0172	1.94	2.76
MFLVNSFLKGGGGGGGGGGGLGGGLGNVLGGLISGAGGGGGGGGGGGGGGGGGGGGTAMRILGGVISAISEAAAQYNPEPPPPRTHYSNIEANESEEVRQFRRLFAQLAGDDMEVSATELMNILNKVVTRHPDLKTDGFGIDTCRSMVAVMDSDTTGKLGFEEFKYLWNNIKRWQAIYKQFDTDRSGTICSSELPGAFEAAGFHLNEHLYNMIIRRYSDESGNMDFDNFISCLVRLDAMFRAFKSLDKDGTGQIQVNIQEWLQLTMYS [CAPNS1]	0.395	55.4	55	-0.0652	1.02	1.65
MFRGLSSWLGLQQPVAGGGQPNGDAPPEQPSETVAESAEEELQQAGDQELLHQAKDFGNYLFNFASAATKKITESVAETAQTIKKSVEEGKIDGIIDKTIIGDFQKEQKKFVEEQHTKKSEAAVPPWVDTNDEETIQQQILALSADKRNFLRDPPAGVQFNFDFDQMYPVALVMLQEDELLSKMRFALVPKLVKEEVFWRNYFYRVSLIKQSAQLTALAAQQQAAGKEEKSNGREQDLPLAEAVRPKTPPVVIKSQLKTQEDEEEISTSPGVSEFVSDAFDACNLNQEDLRKEMEQLVLDKKQEETAVLEEDSADWEKELQQELQEYEVVTESEKRDENWDKEIEKMLQEEN [SYAP1]	0.391	53.2	53.5	0.264	-0.579	-1.49
MFSKFTSILQHAVEALAPSLPLQEDFVYHWKAITHYYIETSDDKAPVTDTNIPSHLEQMLDILVQEENERESGETGPCMEYLLHHKILETLYTLGKADCPPGMKQQVLVFYTKLLGRIRQPLLPHINVHRPVQKLIRLCGEVLATPTENEEIQFLCIVCAKLKQDPYLVNFFLENKMKSLASKGVPNVISEDTLKGQDSLSTDTGQSRQPEELSGATGMEQTELEDEPPHQMDHLSTSLDNLSVTSLPEASVVCPNQDYNLVNSLLNLTRSPDGRIAVKACEGLMLLVSLPEPAAAKCLTQSTCLCELLTDRLASLYKALPQSVDPLDIETVEAINWGLDSYSHKEDASAFPGKRALISFLSWFDYCDQLIKEAQKTAAVALAKAVHERFFIGVMEPQLMQTSEMGILTSTALLHRIVRQVTSDVLLQEMVFFILGEQREPETLAEISRHPLRHRLIEHCDHISDEISIMTLRMFEHLLQKPNEHILYNLVLRNLEERNYTEYKPLCPEDKDVVENGLIAGAVDLEEDPLFTDISPENTLPNQEWLSSSPPATPDHPKNDGKTEVHKIVNSFLCLVPDDAKSSYHVEGTGYDTYLRDAHRQFRDYCAICLRWEWPGSPKALEKCNLEAAFFEGHFLKVLFDRMGRILDQPYDVNLQVTSVLSRLSLFPHPHIHEYLLDPYVNLAPGCRSLFSVIVRVVGDLMLRIQRIQDFTPKLLLVRKRLLGLEPEGPIIDHITLLEGVIVLEEFCKELAAIAFVKYHASSTP [FAM160B1]	0.0585	52.1	51.1	-0.212	-0.501	-0.078
